Tests used:
Experiment in all cases: cell-based or functional assay
[1] = target: SARS-CoV-2 Omicron BA.1.1 spike (S) protein, pseudovirus construct (SARS-CoV-2) (UniProt P0DTC2)
[2] = target: SARS-CoV-2 Omicron BA.2 spike (S) protein, pseudovirus construct (SARS-CoV-2) (UniProt P0DTC2)
[3] = target: SARS-CoV-2 Omicron BA.1 spike (S) protein, pseudovirus construct (SARS-CoV-2) (UniProt P0DTC2)
[4] = target: SARS-CoV-2 Victoria spike (S) protein (SARS-CoV-2) (UniProt P0DTC2)
[5] = target: SARS-CoV-2 Omicron BA.3 spike (S) protein, pseudovirus construct (SARS-CoV-2) (UniProt P0DTC2)
[6] = target: SARS-CoV-2 spike (S) protein, Omicron BA.4/5 (SARS-CoV-2) (UniProt P0DTC2)
[7] = target: SARS-CoV-2 spike (S) protein, Omicron BA.2 (SARS-CoV-2) (UniProt P0DTC2)
[8] = target: SARS-CoV-2 spike (S) protein, Omicron BA.2.75.2 (SARS-CoV-2) (UniProt P0DTC2)
[9] = target: SARS-CoV-2 spike (S) protein, Omicron BA.2.3.20 (SARS-CoV-2) (UniProt P0DTC2)
[10] = target: SARS-CoV-2 spike (S) protein, Omicron BA.4.6 (SARS-CoV-2) (UniProt P0DTC2)
[11] = target: SARS-CoV-2 spike (S) protein, Omicron BA.2.75 (SARS-CoV-2) (UniProt P0DTC2)
[12] = target: SARS-CoV-2 spike (S) protein, Omicron BJ.1 (SARS-CoV-2) (UniProt P0DTC2)
[13] = target: SARS-CoV-2 spike (S) protein, Victoria strain (SARS-CoV-2) (UniProt P0DTC2)
[14] = target: SARS-CoV-2 Gamma spike (S) protein (SARS-CoV-2) (UniProt P0DTC2)
[15] = target: SARS-CoV-2 Alpha spike (S) protein (SARS-CoV-2) (UniProt P0DTC2)
[16] = target: SARS-CoV-2 Beta spike (S) protein (SARS-CoV-2) (UniProt P0DTC2)
[17] = target: SARS-CoV-2 Omicron BA.1.1 spike (S) protein (SARS-CoV-2) (UniProt P0DTC2)
[18] = target: SARS-CoV-2 Omicron BA.2 spike (S) protein (SARS-CoV-2) (UniProt P0DTC2)
[19] = target: SARS-CoV-2 Delta spike (S) protein (SARS-CoV-2) (UniProt P0DTC2)
[20] = target: SARS-CoV-2 Omicron BA.1 spike (S) protein of the live isolate (SARS-CoV-2) (UniProt P0DTC2)

Known Antibody D (AZD8895), sequence (VH): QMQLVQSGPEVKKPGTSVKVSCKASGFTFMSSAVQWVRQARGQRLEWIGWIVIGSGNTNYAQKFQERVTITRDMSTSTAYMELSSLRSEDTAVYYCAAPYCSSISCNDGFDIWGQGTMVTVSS
Known Antibody D (AZD8895), sequence (VL): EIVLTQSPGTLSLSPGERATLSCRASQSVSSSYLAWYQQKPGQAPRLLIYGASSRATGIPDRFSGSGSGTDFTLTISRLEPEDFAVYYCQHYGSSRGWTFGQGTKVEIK

Known Antibody C (AZD1061)
IC50 (ug/ml), pseudovirus [1]: > 10 µg/mL | IC50 (ug/ml), pseudovirus [2]: 0.008 µg/mL | IC50 (ug/ml), pseudovirus [3]: 0.308 µg/mL | IC50 (ug/ml), pseudovirus [4]: 0.002 µg/mL | IC50 (ug/ml), pseudovirus [5]: 0.019 µg/mL

Known Antibody J (Ly-CoV16)
IC50 (ug/ml), pseudovirus [1]: > 10 µg/mL | IC50 (ug/ml), pseudovirus [2]: > 10 µg/mL | IC50 (ug/ml), pseudovirus [3]: > 10 µg/mL | IC50 (ug/ml), pseudovirus [4]: 0.014 µg/mL | IC50 (ug/ml), pseudovirus [5]: > 10 µg/mL

Known Antibody B (REGN 10933)
IC50 (ug/ml), pseudovirus [1]: > 10 µg/mL | IC50 (ug/ml), pseudovirus [2]: > 10 µg/mL | IC50 (ug/ml), pseudovirus [3]: > 10 µg/mL | IC50 (ug/ml), pseudovirus [4]: 0.001 µg/mL | IC50 (ug/ml), pseudovirus [5]: > 10 µg/mL

Known Antibody H (ADG30)
IC50 (ug/ml), pseudovirus [1]: > 10 µg/mL | IC50 (ug/ml), pseudovirus [2]: > 10 µg/mL | IC50 (ug/ml), pseudovirus [3]: > 10 µg/mL | IC50 (ug/ml), pseudovirus [4]: 0.014 µg/mL | IC50 (ug/ml), pseudovirus [5]: > 10 µg/mL

Known Antibody K (S309)
IC50 (ug/ml), pseudovirus [1]: 0.138 µg/mL | IC50 (ug/ml), pseudovirus [2]: 0.638 µg/mL | IC50 (ug/ml), pseudovirus [3]: 0.094 µg/mL | IC50 (ug/ml), pseudovirus [4]: 0.587 µg/mL | IC50 (ug/ml), pseudovirus [5]: 0.228 µg/mL

Known Antibody D (AZD8895)
IC50 (ug/ml), pseudovirus [1]: 0.1 µg/mL | IC50 (ug/ml), pseudovirus [2]: 1.33 µg/mL | IC50 (ug/ml), pseudovirus [3]: 0.246 µg/mL | IC50 (ug/ml), pseudovirus [4]: 0.001 µg/mL | IC50 (ug/ml), pseudovirus [5]: > 10 µg/mL

LY-CoV1404 (bebtelovimab) (antibody)
IC50, pseudoviral neutralization [6]: 0.002 µg/mL | IC50, pseudoviral neutralization [7]: 0.001 µg/mL | IC50, pseudoviral neutralization [8]: 0.002 µg/mL | IC50, pseudoviral neutralization [9]: 0.018 µg/mL | IC50, pseudoviral neutralization [10]: 0.001 µg/mL | IC50, pseudoviral neutralization [11]: 0.002 µg/mL | IC50, pseudoviral neutralization [12]: > 10 µg/mL | IC50, pseudoviral neutralization [13]: 0.001 µg/mL

AZD7442 (antibody)
IC50, authentic virus neutralization [14]: 0.006 µg/mL | IC50, authentic virus neutralization [15]: 0.007 µg/mL | IC50, authentic virus neutralization [4]: 0.009 µg/mL | IC50, authentic virus neutralization [16]: 0.012 µg/mL | IC50, authentic virus neutralization [17]: 3.82 µg/mL | IC50, authentic virus neutralization [18]: 0.052 µg/mL | IC50, authentic virus neutralization [19]: 0.005 µg/mL | IC50, authentic virus neutralization [20]: 0.273 µg/mL

AZD7442 (a combination of AZD8895 and AZD1061)
IC50, pseudoviral neutralization [6]: 0.065 µg/mL | IC50, pseudoviral neutralization [7]: 0.008 µg/mL | IC50, pseudoviral neutralization [8]: > 10 µg/mL | IC50, pseudoviral neutralization [9]: 0.025 µg/mL | IC50, pseudoviral neutralization [10]: > 10 µg/mL | IC50, pseudoviral neutralization [11]: 0.017 µg/mL | IC50, pseudoviral neutralization [12]: 2.73 µg/mL | IC50, pseudoviral neutralization [13]: 0.001 µg/mL

Known Antibody G (ADG20)
IC50 (ug/ml), pseudovirus [1]: 0.253 µg/mL | IC50 (ug/ml), pseudovirus [2]: > 10 µg/mL | IC50 (ug/ml), pseudovirus [3]: 0.348 µg/mL | IC50 (ug/ml), pseudovirus [4]: 0.003 µg/mL | IC50 (ug/ml), pseudovirus [5]: > 10 µg/mL

Known Antibody F (ADG10)
IC50 (ug/ml), pseudovirus [1]: > 10 µg/mL | IC50 (ug/ml), pseudovirus [2]: > 10 µg/mL | IC50 (ug/ml), pseudovirus [3]: > 10 µg/mL | IC50 (ug/ml), pseudovirus [4]: 0.007 µg/mL | IC50 (ug/ml), pseudovirus [5]: > 10 µg/mL

Known Antibody A (REGN 10987)
IC50 (ug/ml), pseudovirus [1]: > 10 µg/mL | IC50 (ug/ml), pseudovirus [2]: 0.616 µg/mL | IC50 (ug/ml), pseudovirus [3]: > 10 µg/mL | IC50 (ug/ml), pseudovirus [4]: 0.002 µg/mL | IC50 (ug/ml), pseudovirus [5]: > 10 µg/mL

Known Antibody I (Ly-CoV-555)
IC50 (ug/ml), pseudovirus [1]: > 10 µg/mL | IC50 (ug/ml), pseudovirus [2]: > 10 µg/mL | IC50 (ug/ml), pseudovirus [3]: > 10 µg/mL | IC50 (ug/ml), pseudovirus [4]: 0.002 µg/mL | IC50 (ug/ml), pseudovirus [5]: > 10 µg/mL

Ly-CoV-555 (antibody)
IC50, authentic virus neutralization [14]: > 10 µg/mL | IC50, authentic virus neutralization [15]: 0.009 µg/mL | IC50, authentic virus neutralization [4]: 0.006 µg/mL | IC50, authentic virus neutralization [16]: > 10 µg/mL | IC50, authentic virus neutralization [17]: > 10 µg/mL | IC50, authentic virus neutralization [18]: > 10 µg/mL | IC50, authentic virus neutralization [19]: 8.31 µg/mL | IC50, authentic virus neutralization [20]: > 10 µg/mL
